Measurements: patent US20240109958

How the values were obtained:
[1] = target: Ub vinyl sulfone HA-tagged probe (Ub-VS-HA; Cat #U-212, Boston Biochem) (UniProt P0CG48)
[2] = target: lysine-less catalytically inactive UCHL5 (UniProt Q9Y5K5)
[3] = target: lysine-less catalytically inactive UCHL1 (UniProt P09936)

Substance: N-terminally ubiquitinated mimetic Ub^G76V_UCHL1
- modification by the suicide probe Ub-VS (immunoblot) [1]: Ub^G76V_UCHL1 remained largely unmodified

Substance: N-terminally ubiquitinated mimetic Ub^G76V_UCHL5
- modification by the suicide probe Ub-VS (immunoblot) [1]: Ub^G76V_UCHL5 rapidly reacted with Ub-VS

Substance: UBE2W (Cat #E2-740, Boston Biochem)
- in vitro ubiquitination assay with purified proteins (immunoblot) [2]: UBE2W can monoubiquitinate lysine-less versions of both UCHL1 and UCHL5
- in vitro ubiquitination assay with purified proteins (immunoblot) [3]: UBE2W can monoubiquitinate lysine-less versions of both UCHL1 and UCHL5
